Results on eleven molecules are retold here after article PMC3836730, “Molecular Cloning and Characterization of Taurocyamine Kinase from Clonorchis sinensis: A Candidate Chemotherapeutic Target” (PLoS Neglected Tropical Diseases, 2013).

What all share (experiment): purified protein
Format in all cases: biochemical, Clonorchis sinensis

One data set deals with N=C(N)NCCS(=O)(=O)O. To be noted: co-substrate ATP, Mg-acetate, Tris-HCl pH 8, 25°C.
Substrate in data set [1]: N=C(N)NCCS(=O)(=O)O
The conditions noted are these: co-substrate ATP, Mg-acetate, Tris-HCl pH 8, 25°C. This is another data set of the same source.

Substrate in data set [2]: Nc1ncnc2c1ncn2[C@@H]1O[C@H](COP(=O)(O)OP(=O)(O)OP(=O)(O)O)[C@@H](O)[C@H]1O
To be noted: co-substrate taurocyamine, Mg-acetate, Tris-HCl pH 8, 25°C.

Usually Km stands for the substrate concentration at which the rate is half of its maximum. By kcat is commonly meant the number of substrate molecules converted per active site and unit of time at saturation. One may read the kcat/Km as the turnover number divided by the Michaelis constant.

Take “C. sinensis TK D1 (CsTK D1) (Clonorchis sinensis; I60A)”: in the data set with N=C(N)NCCS(=O)(=O)O, the Km was 510 ± 70 µM, the kcat is 22.43 ± 0.38 s⁻¹ and the kcat/Km is 44000 M⁻¹ s⁻¹.
As for “C. sinensis TK D1 (CsTK D1) (Clonorchis sinensis; R58A)”, in the data set on N=C(N)NCCS(=O)(=O)O, the Km came to 850 ± 60 µM, the kcat amounted to 33.03 ± 1.14 s⁻¹ and the kcat/Km came out at 38900 M⁻¹ s⁻¹.
For “C. sinensis TK D1 (CsTK D1) (Clonorchis sinensis; Y84A)”, in that order: 820 ± 70 µM, 32.90 ± 1.54 s⁻¹ and 40100 M⁻¹ s⁻¹.
With “C. sinensis TK D2 (CsTK D2) (Clonorchis sinensis; H421A)”, in the data set with N=C(N)NCCS(=O)(=O)O, the Km stood at 360 ± 70 µM, the kcat worked out at 5.92 ± 1.23 s⁻¹ and the kcat/Km turned out to be 15600 M⁻¹ s⁻¹.
Regarding “C. sinensis TK D2 (CsTK D2) (Clonorchis sinensis; I423A)”, in the data set on N=C(N)NCCS(=O)(=O)O, the Km is 300 ± 50 µM, the kcat stood at 6.46 ± 0.45 s⁻¹ and the kcat/Km came to 21500 M⁻¹ s⁻¹.
For “C. sinensis TK D2 (CsTK D2) (Clonorchis sinensis; Y447A)”, in that order: 3640 ± 210 µM, 6.45 s⁻¹ and 1770 M⁻¹ s⁻¹.
For “C. sinensis TK D2 (CsTK D2) (Clonorchis sinensis; Y447R)”, in that order: 3010 ± 250 µM, 0.99 ± 0.52 s⁻¹ and 330 M⁻¹ s⁻¹.
For “C. sinensis TK whole (CsTK D1D2) (Clonorchis sinensis; R58A)”, in that order: 450 ± 190 µM, 15.00 ± 0.25 s⁻¹ and 33300 M⁻¹ s⁻¹.

B1: C. sinensis TK whole (CsTK D1D2) (Clonorchis sinensis) (protein)
chain: MQVEPLKSLQQKIVNDEANRSFTKKHLTNRIVDLYADKKTSFGGSLAQCVSHNARNPRCILPRACDLDAYEAFREFFDAVIIDYHKVKGDKITHPKSDFGDLKSLNFKDLNADGNMVVSTRVRLGRTVAGYGFCPTISNEQRLELEKKISTALKDLSGEFKGTYYPLTGMKEEDRKKLVEKHFLFRDDDSVLRDAGGYIDWPNGRGIFINEKENFLVWVNEEDHIRVISMQKGGDLIAVYKRLANAISELGKSLTFATNDRFGFITFCPSNLGTTLRASVHARVPYLSALPNFEQICEKYNIQARGTHGEHTASVGGVYDLSNKRRLGLTEIEAVTEMYNGVQALLDLEKQLAAYNKDAPAGVMPVEPLTYLSHLLEAADPVKNYTRKHLTPEIIKKYDGVRTTHGATLAHMVRNGAYNPHSICPRTGEAECYTKFVDYLDAVILDYHGVSDPAFKHPPPTFGDLNNLPFGDVDPEGKFVVSTRVRVGRSVDGFLFSTIMSKQDRLDLETKVSTALKSLTGDHAGSYYPLANMSEATRKQLVEDHFLFKNDDPVLRDAGGYRDWPHGRGIFHNANKTFLVWLCEEDHMRIISMQKGGDLAAVYKRLIQGIQAIEKTLPFAHSDKYGYITCCPSNLGTTMRASVLLKIPKLSAQKAKLDEVCAKYRLQARGLHGEHTESPEGIHDISNKRRLGLTELEAAKEMADGVAQMIAIEKSLP
notes: full-length contiguous two-domain enzyme, 717 residues, 80,274 Da; MBP fusion (pMAL-c2), E. coli TB1, amylose resin; 120 kDa with MBP
For the molecule B1, in the data set “purified protein [1]”, the Km is 490 ± 20 µM, the kcat stood at 17.78 ± 0.98 s⁻¹ and the kcat/Km was 36300 M⁻¹ s⁻¹. In addition, in the data set “purified protein [2]”, the Km was 780 ± 70 µM and the kcat was 17.78 ± 0.98 s⁻¹.

B2: C. sinensis TK D2 (CsTK D2) (Clonorchis sinensis) (protein)
chain: AGVMPVEPLTYLSHLLEAADPVKNYTRKHLTPEIIKKYDGVRTTHGATLAHMVRNGAYNPHSICPRTGEAECYTKFVDYLDAVILDYHGVSDPAFKHPPPTFGDLNNLPFGDVDPEGKFVVSTRVRVGRSVDGFLFSTIMSKQDRLDLETKVSTALKSLTGDHAGSYYPLANMSEATRKQLVEDHFLFKNDDPVLRDAGGYRDWPHGRGIFHNANKTFLVWLCEEDHMRIISMQKGGDLAAVYKRLIQGIQAIEKTLPFAHSDKYGYITCCPSNLGTTMRASVLLKIPKLSAQKAKLDEVCAKYRLQARGLHGEHTESPEGIHDISNKRRLGLTELEAAKEMADGVAQMIAIEKSLP
notes: truncated C-terminal domain D2 (357 residues of the 717-residue two-domain protein, 39,719 Da); MBP fusion (pMAL-c2), E. coli TB1, amylose resin; about 80 kDa with MBP
Consider B2, for which, in “purified protein [1]”, the Km worked out at 480 ± 50 µM, the kcat was determined as 4.50 ± 0.11 s⁻¹ and the kcat/Km was 9380 M⁻¹ s⁻¹. For the same molecule, in the data set “purified protein [2]”, the Km is 750 ± 130 µM and the kcat was determined as 4.50 ± 0.11 s⁻¹.

B3: C. sinensis TK D1 (CsTK D1) (Clonorchis sinensis) (protein)
chain: MQVEPLKSLQQKIVNDEANRSFTKKHLTNRIVDLYADKKTSFGGSLAQCVSHNARNPRCILPRACDLDAYEAFREFFDAVIIDYHKVKGDKITHPKSDFGDLKSLNFKDLNADGNMVVSTRVRLGRTVAGYGFCPTISNEQRLELEKKISTALKDLSGEFKGTYYPLTGMKEEDRKKLVEKHFLFRDDDSVLRDAGGYIDWPNGRGIFINEKENFLVWVNEEDHIRVISMQKGGDLIAVYKRLANAISELGKSLTFATNDRFGFITFCPSNLGTTLRASVHARVPYLSALPNFEQICEKYNIQARGTHGEHTASVGGVYDLSNKRRLGLTEIEAVTEMYNGVQALLDLEKQLAAYNKDAP
notes: truncated N-terminal domain D1 (360 residues of the 717-residue two-domain protein, 40,573 Da); MBP fusion (pMAL-c2), E. coli TB1, amylose resin; about 80 kDa with MBP
As for B3, in “purified protein [1]”, the Km was 350 ± 10 µM, the kcat is 22.59 ± 0.15 s⁻¹ and the kcat/Km was 54500 M⁻¹ s⁻¹. Further, in “purified protein [2]”, the Km is 460 ± 120 µM and the kcat came to 22.59 ± 0.15 s⁻¹.
